In article PMC9563463, “PARP1-MGMT complex underpins pathway crosstalk in O^6-methylguanine repair” (Journal of Hematology & Oncology, 2022):

Target: T1, full-length PARP1, purified recombinant (UniProt P09874 1-1014)
T1 construct: PARP1, full length; also called purified PARP1; source: purified recombinant
Assay: MST; Monolith NT.115, 17% LED power, medium MST power, MST-on time of 10 s; full-length proteins
Conditions: both partners purified

T1 sequence (P09874 whole entry): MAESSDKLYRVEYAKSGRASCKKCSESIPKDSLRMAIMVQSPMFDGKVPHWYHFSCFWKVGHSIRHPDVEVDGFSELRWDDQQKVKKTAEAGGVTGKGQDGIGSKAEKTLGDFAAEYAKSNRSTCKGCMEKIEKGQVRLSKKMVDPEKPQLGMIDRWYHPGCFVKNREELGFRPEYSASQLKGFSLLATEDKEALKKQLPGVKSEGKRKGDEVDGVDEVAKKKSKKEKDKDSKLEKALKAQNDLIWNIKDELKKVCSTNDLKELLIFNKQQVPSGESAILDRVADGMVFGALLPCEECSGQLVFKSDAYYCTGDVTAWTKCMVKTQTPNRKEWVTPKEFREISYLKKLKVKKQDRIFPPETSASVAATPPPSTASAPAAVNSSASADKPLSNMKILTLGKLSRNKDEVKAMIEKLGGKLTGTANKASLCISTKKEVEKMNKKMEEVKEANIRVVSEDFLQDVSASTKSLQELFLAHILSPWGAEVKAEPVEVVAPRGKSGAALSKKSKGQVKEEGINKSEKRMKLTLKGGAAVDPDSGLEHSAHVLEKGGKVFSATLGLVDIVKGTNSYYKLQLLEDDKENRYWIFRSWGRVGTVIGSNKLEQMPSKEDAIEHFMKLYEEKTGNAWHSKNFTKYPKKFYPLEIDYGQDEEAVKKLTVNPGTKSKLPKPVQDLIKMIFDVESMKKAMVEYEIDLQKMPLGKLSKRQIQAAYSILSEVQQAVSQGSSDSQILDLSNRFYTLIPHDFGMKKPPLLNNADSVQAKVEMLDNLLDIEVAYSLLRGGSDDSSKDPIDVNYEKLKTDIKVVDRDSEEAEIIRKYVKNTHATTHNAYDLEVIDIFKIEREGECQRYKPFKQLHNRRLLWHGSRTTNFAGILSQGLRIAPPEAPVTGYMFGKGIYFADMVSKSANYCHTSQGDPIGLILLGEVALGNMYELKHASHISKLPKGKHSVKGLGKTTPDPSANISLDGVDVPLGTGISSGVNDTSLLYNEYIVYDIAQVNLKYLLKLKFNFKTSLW

B1: full-length MGMT, purified recombinant (natural protein, UniProt P16455 1-207, looked up)
chain: MDKDCEMKRTTLDSPLGKLELSGCEQGLHEIKLLGKGTSAADAVEVPAPAAVLGGPEPLMQCTAWLNAYFHQPEAIEEFPVPALHHPVFQQESFTRQVLWKLLKVVKFGEVISYQQLAALAGNPKAARAVGGAMRGNPVPILIPCHRVVCSSGAVGNYSGGLAVKEWLLAHEGHRLGKPGLGGSSGLAGAWLKGAGATSGSPPAGRN
notes: MGMT, full length; also called purified MGMT; source: purified recombinant
Kd: 165 nM
